# Assay results from US20020045158, “Cells for drug discovery” (published 2002).
# T1: ZFP3A-VP16 / KRAB-ZFP3A (artificial, UniProt P08047)
# T1 chain: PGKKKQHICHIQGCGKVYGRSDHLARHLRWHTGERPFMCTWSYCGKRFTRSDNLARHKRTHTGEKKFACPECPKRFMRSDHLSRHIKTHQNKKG
# T2: VEGF3a/1 six-finger ZFP (artificial (human SP-1 backbone))
# T2 chain: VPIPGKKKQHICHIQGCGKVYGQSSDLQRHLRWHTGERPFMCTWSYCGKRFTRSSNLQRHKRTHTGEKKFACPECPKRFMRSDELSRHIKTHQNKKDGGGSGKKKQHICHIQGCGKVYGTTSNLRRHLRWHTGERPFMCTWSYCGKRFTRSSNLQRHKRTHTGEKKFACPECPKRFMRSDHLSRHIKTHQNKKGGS
# B1: hKCa4 target site (dsDNA)
# DNA 1: GGGGAGGGC
# DNA 2: GCCCTCCCC
# B2: VEGF 18-bp target JVF9/JVF10 (dsDNA)
# DNA 1: AGCGAGCGGGGAGGATCGCGGAGGCTTGGGGCAGCCGGGTAG
# DNA 2: CGCTCTACCCGGCTGCCCCAAGCCTCCGCGATCCTCCCCGCT
# Experiments:
# [1] = tested on: SP-1 zinc finger domain (Homo sapiens); assay: EMSA; settings: target sequence not given
# Zif268 = assay: EMSA; settings: target sequence not given; literature 2-30 nM; cited from earlier work
# ZFP3A-VP16 / KRAB-ZFP3A = target: T1, ZFP3A-VP16 / KRAB-ZFP3A; assay: cell_activity; VP16 fusion on cotransfected reporter; KRAB fusion lowered hKCa4 conductance to 1.0 nS vs 10.0 for empty vector; settings: tags: VP16 or KRAB fusion
# VEGF3a/1 six-finger ZFP = target: T2, VEGF3a/1 six-finger ZFP; assay: competition; half-life of complex relative to VEGF1, EMSA competition at 37 C; settings: tags: MBP N-terminal fusion; label: 5' 32P
# Description: For the EMSA studies, 20 μl binding reactions contained 10 fmole (0.5 nM) 5′ ³²P-labeled double-stranded target DNA, 35 mM Tris HCl (pH 7.8), 100 mM KCl, 1 mM MgCl₂, 5 mM dithiothreitol, 10% glycerol, 20 μg/ml poly dI-dC, 200 μg/ml bovine serum albumin, and 25 μM ZnCl₂. Protein was added as one fifth volume from a 3-fold dilution series. Binding was allowed to proceed for 60 min at either room temperature or 37° C. Polyacrylamide gel electrophoresis was carried out at room temperature or 37° C. using precast 10% or 10-20% Tris-HCl gels (BioRad) and standard Tris-Glycine running buffer. The room temperature assays yielded an apparent Kd for this VEGF3a/1 protein of approximately 1.5 nM. Thus, the 18-bp binding ZFP bound with high affinity to its target site. […] When binding and electrophoresis were performed at 37° C., the apparent Kd of VEGF3a/1 was approximately 9 nM when tested against the 18-bp target, compared to a Kd of 40 nM for VEGF1 tested against its target.
# The apparent Kd is a useful measure of the affinity of a protein for its DNA target. However, for a DNA binding site either in vitro or in vivo, its occupancy is determined to a large extent by the off-rate of the DNA-binding protein. This parameter can be measured by competition experiments. The conditions for EMSA were as described above; binding and electrophoresis were performed at 37° C. […]
molecule,measurement,setting,value
SP-1 target site,Kd,[1],65 nM
Zif268 target site,Kd,Zif268,60 nM
B1,activity,ZFP3A-VP16 / KRAB-ZFP3A,> 5 fold activation
B2,binding signal,VEGF3a/1 six-finger ZFP,> 10 fold
